Test results as given in US20250369013A1 (ENSOMA, published 2025).
Substitutions are numbered along the chain they refer to.

T1: CD46 (UniProt P15529 35-343)
T1 construct: The form used in the Kd measurement is not described
T1 sequence: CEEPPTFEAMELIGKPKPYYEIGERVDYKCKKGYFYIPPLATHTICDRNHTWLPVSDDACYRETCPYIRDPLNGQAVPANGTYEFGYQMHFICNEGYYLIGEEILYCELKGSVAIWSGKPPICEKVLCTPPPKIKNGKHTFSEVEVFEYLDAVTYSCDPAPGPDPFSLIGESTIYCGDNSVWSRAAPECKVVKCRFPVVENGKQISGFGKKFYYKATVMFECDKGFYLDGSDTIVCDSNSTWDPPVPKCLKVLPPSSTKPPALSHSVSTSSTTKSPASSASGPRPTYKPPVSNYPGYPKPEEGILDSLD

B1: Ad11 (fiber knob) (other)
chain: LWTGVNPTEANCQIMNSSESNDCKLILTLVKTGALVTAFVYVIGVSNNFNMLTTHRNINFTAELFFDSTGNLLTRLSSLKTPLNHKSGQNMATGAITNAKGFMPSTTAYPFNDNSREKENYIYGTCYYTASDRTAFPIDISVMLNRRAINDETSYCIRITWSWNTGDAPEVQTSATTLVTSPFTFYYIREDD
notes: also called B7
B2: Mutated Ad35 Knob A8: Ile192Val Ile256Val (other)
chain: LWTGINPPPNCQIVENTNTNDGKLTLVLVKNGGLVNGYVSLVGVSDTVNQMFTQKTANVQLRLYFDSSGNLLTEESDLKIPLKNKSSTATSETVASSKAFMPSTTAYPFNTTTRDSENYIHGVCYYMTSYDRSLFPLNISIMLNSRMISSNVAYAIQFEWNLNASESPESNIATLTTSPFFFSYITEDDN
B3: wtAd35(207Asp) knob (other)
chain: B2 chain with V59I, E74D, V123I
notes: also called B2

Biological target: T1, CD46
Assay: Kd of knob for CD46; method not stated

Binder | Kd [nM]
B1 | 11.2
B2 | 13.7
B3 | 15
